Results from patent US20240239881A1 (Innovent, published 2024).

Legend:
Human Ang1 = molecular target: T1, Human Ang1 (human, UniProt Q15389 20-498, limits assumed); assay: ForteBio BLI, antibody on AHQ sensor
T1 construct: also called hAng1
T1 sequence (looked up): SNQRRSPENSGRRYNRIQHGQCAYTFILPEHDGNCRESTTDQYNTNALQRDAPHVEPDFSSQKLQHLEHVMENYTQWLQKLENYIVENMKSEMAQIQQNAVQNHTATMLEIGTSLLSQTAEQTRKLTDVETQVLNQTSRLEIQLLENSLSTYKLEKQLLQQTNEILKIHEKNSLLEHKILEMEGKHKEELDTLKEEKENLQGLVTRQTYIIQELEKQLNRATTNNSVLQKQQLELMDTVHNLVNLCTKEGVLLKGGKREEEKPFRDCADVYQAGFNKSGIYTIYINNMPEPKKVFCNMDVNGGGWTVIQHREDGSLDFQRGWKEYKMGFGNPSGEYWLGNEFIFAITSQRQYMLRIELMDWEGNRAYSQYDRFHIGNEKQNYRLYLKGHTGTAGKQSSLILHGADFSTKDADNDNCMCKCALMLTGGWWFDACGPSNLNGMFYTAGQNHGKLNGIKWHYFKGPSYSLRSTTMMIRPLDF
Method: The equilibrium dissociation constants (KD) of the above exemplary antibodies of the present invention binding to human Ang2 (h Ang2), cynomolgus monkey Ang2 (cAng2), murine Ang2 (mAng2), and human Ang1 (hAng1) were determined using the biological optical interferometry (ForteBio) assay.
The ForteBio affinity assay was performed according to the existing method (Estep, P et al., High throughput solution-based measurement of antibody-antigen affinity and epitope binning. MAbs, 2013.5 (2): p. 270-8). Briefly, the sensor was equilibrated in the assay buffer off-line for 30 min, followed by on-line detection for 60 s to establish the baseline. Then the purified antibodies obtained as described above were loaded on-line onto an AHQ sensor (ForteBio) for ForteBio affinity assay. The sensors with loaded antibodies were exposed to 100 nM of hAng2, cAng2, mAng2, and hAng1 antigens for 5 min, and then were transferred into the assay buffer for dissociation for 5 min to determine the dissociation rate. Kinetic analysis was performed using a 1:1 binding model.

Rabbit ANG2 = molecular target: T2, Rabbit ANG2 (rabbit, UniProt G1T9B3 19-496); assay: SPR, Biacore T200, mean of three experiments
T2 sequence: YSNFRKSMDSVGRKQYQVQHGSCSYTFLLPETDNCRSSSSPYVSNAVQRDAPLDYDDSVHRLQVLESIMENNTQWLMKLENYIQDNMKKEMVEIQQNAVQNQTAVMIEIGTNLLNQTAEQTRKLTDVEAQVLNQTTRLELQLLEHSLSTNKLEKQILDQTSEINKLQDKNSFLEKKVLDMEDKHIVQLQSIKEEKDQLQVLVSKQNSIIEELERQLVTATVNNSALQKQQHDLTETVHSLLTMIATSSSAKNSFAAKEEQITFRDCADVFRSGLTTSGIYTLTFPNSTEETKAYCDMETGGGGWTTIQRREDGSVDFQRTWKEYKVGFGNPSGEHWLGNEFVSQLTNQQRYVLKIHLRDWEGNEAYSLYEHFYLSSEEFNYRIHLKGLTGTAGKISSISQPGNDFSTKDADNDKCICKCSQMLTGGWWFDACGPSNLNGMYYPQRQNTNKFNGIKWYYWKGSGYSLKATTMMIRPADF
Method: The antibody was diluted to 1 μg/mL and was captured onto channel 2 for 30 s, and channel 1 was the blank control channel. The gradient-diluted Human ANG2, Rhesus ANG2, Rabbit ANG2, Rat ANG2 and Mouse ANG2 were sequentially injected into channels 1 and 2 of the chip, from low to high concentrations (0-32 nM), at a flow rate of 30 μL/min, with one concentration per cycle, and with 180 s association time and 1200 s dissociation time at 25° C. Finally, the chip was regenerated using Glycine pH 1.5 at 30 μL/min for 30 s. The affinity assay was repeated three times.

[1] = molecular target: T3, recombinant biotinylated hAngiopoietin-2 protein (R&D, Cat. No.: BT623B/CF) (human, UniProt O15123 19-496, limits assumed, biotinylated (sites not given)); assay: blocking ELISA: antibody titrated against biotinylated hAng2 (300 ng/ml final); blocked binding to coated hTie2 protein; Avidin-HRP detection
T3 construct: Bought protein; also called Biotin Ang2; human biotin Ang2 protein
T3 sequence: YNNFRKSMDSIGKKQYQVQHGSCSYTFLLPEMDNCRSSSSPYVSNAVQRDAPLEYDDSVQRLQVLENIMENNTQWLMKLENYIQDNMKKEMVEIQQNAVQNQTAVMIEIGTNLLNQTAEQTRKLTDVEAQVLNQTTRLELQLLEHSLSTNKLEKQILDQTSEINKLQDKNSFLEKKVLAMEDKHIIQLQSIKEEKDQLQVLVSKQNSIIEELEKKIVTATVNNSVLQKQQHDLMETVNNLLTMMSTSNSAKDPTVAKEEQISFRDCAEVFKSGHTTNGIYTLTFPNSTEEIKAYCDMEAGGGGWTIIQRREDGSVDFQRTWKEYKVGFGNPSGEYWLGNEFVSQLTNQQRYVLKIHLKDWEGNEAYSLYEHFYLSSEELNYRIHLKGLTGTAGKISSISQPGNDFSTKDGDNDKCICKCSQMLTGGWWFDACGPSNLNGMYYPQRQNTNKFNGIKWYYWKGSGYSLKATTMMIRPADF
Method: The abilities of 81H10, 86E9, 107H7, hz81H10.4, Amhz81H10.4.30, Amhz81H10.4.49, and the control antibodies Nesvacumab and faricimab to block the binding of human Ang2 to hTie2 were determined by ELISA. Faricimab is a bispecific antibody drug undergoing a clinical trial and developed by Roche, which targets both angiopoietin-2 (Ang-2) and VEGF-A.
Then the plate was blocked using 5% BSA for 1 h. The biotinylated antigen, recombinant biotinylated hAngiopoietin-2 protein (R&D, Cat. No.: BT623B/CF), was diluted to 600 ng/ml, and was added into the microtiter plate at 50 μl/well. The antibodies (81H10, 86E9, 107H7, hz81H10.4, Amhz81H10.4.30 and Amhz81H10.4.49) prepared as described above were gradiently diluted with a total of 8 or 12 dilution points starting from the highest concentration, and then added to the microtiter plate at 50 μl/well, and incubated in PBS on ice for 30 min. Then, 50 ul of antigen solution was added to the microtiter plate, in which the final antigen concentration was 300 ng/ml. The plate containing the antigen-antibody mixture was incubated for 90 min. After three washes with PBS, the supernatant was discarded, and Avidin-HRP (Invitrogen) diluted at 1:10000 was added at 100 μl/well, then incubated at room temperature for 30 min. PBS was used to wash the plate six times. Then TMB chromogen solution (solarbio) was added at 100 ul/well to allow for chromogenic reaction for 1 min, then the reaction was terminated with the addition of stop solution (solarbio) at 100 ul/well.

B1: humanized antibody hz81H10.4 (antibody, human IgG1, kappa, V domains shown)
VH: EVQLVESGGGLVKPGGSLRLSCAASGFTFSNYWMNWVRQAPGKGLEWVAEIRLKSNNYATHYAESVKGRFTISRDVSKNTVYLQMNSLKTEDTAVYYCTDTAPFAYWGQGTLVTVSS
VL: DIQMTQSPSSLSASVGDRVTITCKASQDVGTDVAWYQQKPGKAPKLLIYWASTRHTGVPSRFSGSGSGTDFTLTISSLQPEDFATYYCQQYSSYPLTFGGGTKVEIKR
notes: also called IBI335
binding result (Human Ang1): no binding (tested: 100 nM)
Kd (Rabbit ANG2): 0.48 nM
IC50 [1]: 0.728 nM
